According to paper PMC4634408:

Target: thrombin (human alpha-thrombin as purchased) (Homo sapiens) (UniProt P00734+P00734)
Assay: electrochemical impedance spectroscopy
Conditions: 5'-HS-C6 thiol spacer; EIS with 2.5 mM [Fe(CN)6]3-/4- in phosphate buffer (PB) pH 7.0 with 0.1 M K2SO4; pH 6.6-7.8 and 15-40 C also tested (best pH 7.0, 35 C); standard incubation …

With “TTTGGTTGGTGTGGTTGG [ThA thrombin aptamer (15-mer with dT3 spacer)]” the binding signal was -28 % dRct/Rct0.
